Laboratory results taken from patent publication US6921663.

How the values were obtained:
Assay in all cases: cell-based or functional assay
[1] = target: RGD peptide target integrin (αvβ3 or αvβ5) on LN444 cells (human (LN444 human glioma cells)) (UniProt P06756)
[2] = target: integrin on SK-HEP1 cells (human (cell line))
[3] = target: integrin on CHO cells

Chain of UniProt P06756 (P06756 whole entry): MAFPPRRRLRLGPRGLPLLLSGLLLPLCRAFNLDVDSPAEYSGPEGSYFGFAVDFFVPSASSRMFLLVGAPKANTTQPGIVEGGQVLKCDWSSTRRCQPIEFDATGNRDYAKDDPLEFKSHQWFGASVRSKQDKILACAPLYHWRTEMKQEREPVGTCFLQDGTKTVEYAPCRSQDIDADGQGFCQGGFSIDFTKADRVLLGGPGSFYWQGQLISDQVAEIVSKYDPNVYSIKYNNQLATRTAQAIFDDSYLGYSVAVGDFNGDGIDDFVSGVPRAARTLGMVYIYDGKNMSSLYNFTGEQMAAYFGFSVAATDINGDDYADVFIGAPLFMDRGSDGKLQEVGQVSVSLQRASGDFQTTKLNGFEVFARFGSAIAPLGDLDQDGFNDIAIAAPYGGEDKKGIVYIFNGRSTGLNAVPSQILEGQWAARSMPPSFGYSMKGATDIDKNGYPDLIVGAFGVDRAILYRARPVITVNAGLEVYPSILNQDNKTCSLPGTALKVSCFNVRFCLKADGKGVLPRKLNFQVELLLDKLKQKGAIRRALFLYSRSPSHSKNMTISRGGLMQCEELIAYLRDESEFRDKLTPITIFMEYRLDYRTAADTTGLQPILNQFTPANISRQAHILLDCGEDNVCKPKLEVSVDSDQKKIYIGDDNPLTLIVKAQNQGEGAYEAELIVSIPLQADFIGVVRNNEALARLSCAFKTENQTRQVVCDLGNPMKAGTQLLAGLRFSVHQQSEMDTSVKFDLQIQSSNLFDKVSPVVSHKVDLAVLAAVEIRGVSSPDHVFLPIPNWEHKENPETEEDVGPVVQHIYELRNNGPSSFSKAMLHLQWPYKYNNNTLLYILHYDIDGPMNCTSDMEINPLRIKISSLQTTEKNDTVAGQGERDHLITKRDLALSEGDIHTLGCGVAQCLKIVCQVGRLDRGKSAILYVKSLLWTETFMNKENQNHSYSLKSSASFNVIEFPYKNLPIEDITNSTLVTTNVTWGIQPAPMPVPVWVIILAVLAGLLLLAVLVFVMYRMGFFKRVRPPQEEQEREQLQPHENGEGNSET

| Substance | Luc enzyme activity after transduction of LN444 cells (CAR not expressed), against AdHM4-L2 (wild fiber) [1] [fold] | Luc enzyme activity after transduction of SK-HEP1 cells, against AdHM4-L2 (wild fiber) [2] [fold] | LacZ enzyme activity after transduction of CHO cells (CAR not expressed), against AdHM4-LacZ (wild fiber) [3] [fold] | LacZ enzyme activity after transduction of SK-HEP1 cells, against AdHM4-LacZ (wild fiber) [2] [fold] |
| --- | --- | --- | --- | --- |
| AdHM15-RGD-L2 (adenovirus type 5 vector whose fiber carries the RGD-4C peptide in the HI loop; luciferase cassette) (from UniProt P11818 1-546; P11818 547-581) | 1000 | 10 |  |  |
| AdHM15-RGD-LacZ (adenovirus type 5 vector whose fiber carries the RGD-4C peptide in the HI loop; LacZ cassette in the E1-deleted region) (from UniProt P11818 1-546; P11818 547-581) |  |  | 40 | 2 |
